# Laboratory results taken from US20030203372A1, “Analysis method” (priority 2000, published 2003).
# B1: p1F6 (nucleic acid, listed as Homo Sapiens)
# DNA: GTCCATCTTGCTGCTGTCCACTTTGGGTTCCATCTTGGGCTCCATCTTGCTCTCACGATTAAAAGCTTCTTTCCTGCTTTCCCCATTCCGACCATCATTTGCACCCCGGTTCTCCCCATGCCGGCCTGCGCTTCCTCCATGTCTGTTCTCCCCGTGCCGATGGCCATCAGTATGACGGCTGCTGCTTTCTGGATGGCGGTATCCATCTCCATGGCGACCACCATCTCCGTGACGTGGACTATCGCTATGCCGATTGCCAGTCTCTCCGTGACTGTGACGGCTGCTGCCCCGGTTCTCAGTATATCTCTCTCTTTTCCCGTTGCTGCCCCCAGTCCCTTCTCGGCTGTTATTCCCTGAAGCTGTGTTGTTGACTCCTTGGGCTCCGGCAGACGGGTAGGTCACAGGGGCACCACTGATGTTGCCAGTATTGCCAAAGCCTGGGATGCCCTTGGCGGCACTGGTGACGGGGCTGTCAGGACTGTTATGGCCCTGTTGTGCTGAGTTAGTTGGAACAGAATTCAAGCTCCCTGCACTAGTCCACCTGCCCCACTGCTTCTTCGCTTCTCTCTTGGAAAGTCCAGTCTCTCCTCGGCTTGCAATGGACCCCAACTGCTCCTGCGCCGCTGGTGTCTCCTGCACCTGCGCTGGTTCCTGCAAGTGCAAAGAGTGCAAATGCACCTCCTGCAAGAAGAGCTGCTGCTCCTGCTGCCCCGTGGGCTGTAGCAAGTGTGCCCAGGGCTGTGTTTGCAAAGGGGCGTCAGAGAAGTGCAGCTGCTGCGACTGATGCCAGGACAACCTTTCTCCCAGATGTAAACAGAGAGACATGTACAAACCTGGATTTTTTTTTTATACCACCTTGACCCATTTGCTACATTCCTTTTCCTGTGAAATATGTGAGTGATAATTAAACACTTTAGACCTGAAAAAAAAAAAAAAAAAAAAAAAAAAAAAAAAAAAAAAAAAAAAAAAAAAAAAAAAAAAAAAAAAAAAAAAAAAAAAAAAAAAAAAAAAAAAAAAAAAAAAAAAAAAAAAAAAAAAAAAAAAAAAAAAAAAAAAAAAAAAAAAAAAAAA
# B2: p1D24 (nucleic acid, listed as Homo Sapiens)
# DNA: TTCTATCAGAAATTGTATTTATTTACCAGCATTTATGGCAAATGGCCAGACCTGGGCAGGGTGGTAGCAATGATAGATTTTACAAATTAAGGCATTGTTCTTTATTTCAAANTTTTCATTTACCNATATTTTCCTTGGTCTTAGAAATATGAATANTTTAGAGCTGGCAATACTCACCATCAGGATATAATAAACGGAGGTTTCTTTNTCCGAAATCCATAAANTGTAGTANTACTCTNTTGTACTTTTAAAATTCCNATTTTTGCAGTNGGCTTCCTCTCAGTGATTTAGTTAGGNAGTTTTGGTACATTTTGGNGGGGTCATAAACATGTTCATAGGATAGGAGTACNGGGCATTTNTGGAAAAACCCG
# modifications: EST array clone; misc_feature 112, 125, 156, 208, 224, 232, 239, 258, 270, 297, 316, 350,359: n = A,T,C or G
# B3: p1E1 (nucleic acid, listed as Homo Sapiens)
# DNA: TTTTGGTCTGAGAATGATGGACATTTAGACACTGGCGCCAGGTTTGCGCTGGACCGGCGCACGCAGGGGTTGGGCGGACGAAAGACACACAGGTGGGCTACAGGTGTCACACGGCACCAGCCAGGGCCCGGGGTGGCTGGGGTGAGGATGGGTGTTTGGCCAGTGACCAGGAGTCAGGTCAAGTCCAGGTGGTCAGTGCCAGGGGTCCCAGGAGGGGAGGGCAGTGCATTAACCCTCCTGGTGTCCAGCGTCACCAGGCGGTCGTCACAGAAAGCAACCTCGGCCCGGGGCCG
# modifications: EST array clone
# Key:
# human macrophages = experiment: Custom gene array, macrophages with no cytokines, IL-10 or LPS + IFN, in normoxia and hypoxia; type: cell-based; conditions: for mRNA EXPRESSION (experimental condition) #1: #1 no cytokines/normoxia; for mRNA EXPRESSION (experimental condition) #2: #2 no cytokines/hypoxia; for mRNA EXPRESSION (experimental condition) #3: #3 IL-10/normoxia; for mRNA EXPRESSION (experimental condition) #4: #4 IL-10/hypoxia; for mRNA EXPRESSION (experimental condition) #5: #5 LPS/IFN/normoxia; for mRNA EXPRESSION (experimental condition) #6: #6 LPS/IFN/hypoxia
# Experimental: Macrophages were derived and cultured as described elsewhere in the specification. A total of 6 experimental conditions were analysed, as shown below. Where cells were treated with cytokines or hypoxia (0.1% oxygen), this was for 6 hr. Lipopolysaccharide (LPS) (from E.coli 026:B6; Sigma), gamma Interferon (IFN) and Interleukin-10 (IL-10) were all used at a final concentration of 100 ng/ml. The effect of gamma Interferon and Lipopolysaccharide is to activate macrophages, with a Th1 biased phenotype, as found in many inflammatory conditions. Interleukin-10 is a Th2 cytokine and de-activates macrophages, and suppresses their effector functions.
# [1] = test system: primary human cell cultures (11 cell types); experiment: Custom gene array, 11 human cell types in normoxia or hypoxia for 6 hr and 18 hr; type: cell-based; conditions: for HIGHEST FOLD CHANGE IN HYPOXIA (hr hypoxia + cell type): hypoxia/normoxia induction ratio; for mRNA expression level, #1 HY 6 hr: cell type #1, hypoxia 6 hr; for mRNA expression level, #1 HY 18 hr: cell type #1, hypoxia 18 hr; for mRNA expression level, #1 NO: cell type #1, normoxia; for mRNA expression level, #2 HY 6 hr: cell type #2, hypoxia 6 hr; for mRNA expression level, #2 HY 18 hr: cell type #2, hypoxia 18 hr; for mRNA expression level, #2 NO: cell type #2, normoxia; for mRNA expression level, #3 HY 6 hr: cell type #3, hypoxia 6 hr; for mRNA expression level, #3 HY 18 hr: cell type #3, hypoxia 18 hr; for mRNA expression level, #3 NO: cell type #3, normoxia; for mRNA expression level, #4 HY 6 hr: cell type #4, hypoxia 6 hr; for mRNA expression level, #4 HY 18 hr: cell type #4, hypoxia 18 hr; for mRNA expression level, #4 NO: cell type #4, normoxia; for mRNA expression level, #5 HY 6 hr: cell type #5, hypoxia 6 hr; for mRNA expression level, #5 NO: cell type #5, normoxia; for mRNA expression level, #6 HY 6 hr: cell type #6, hypoxia 6 hr; for #6 HY 18 hr (mRNA expression level): cell type #6, hypoxia 18 hr; for mRNA expression level, #6 NO: cell type #6, normoxia; for #7 HY 6 hr (mRNA expression level): cell type #7, hypoxia 6 hr; for #7 HY 18 hr (mRNA expression level): cell type #7, hypoxia 18 hr; for #7 NO (mRNA expression level): cell type #7, normoxia; for #8 HY 6 hr (mRNA expression level): cell type #8, hypoxia 6 hr; for #8 HY 18 hr (mRNA expression level): cell type #8, hypoxia 18 hr; for #8 NO (mRNA expression level): cell type #8, normoxia; for #9 HY 6 hr (mRNA expression level): cell type #9, hypoxia 6 hr; for #9 HY 18 hr (mRNA expression level): cell type #9, hypoxia 18 hr; for #9 NO (mRNA expression level): cell type #9, normoxia; for #10 HY 6 hr (mRNA expression level): cell type #10, hypoxia 6 hr; for #10 HY 18 hr (mRNA expression level): cell type #10, hypoxia 18 hr; for #10 NO (mRNA expression level): cell type #10, normoxia; for #11 HY 6 hr (mRNA expression level): cell type #11, hypoxia 6 hr; for #11 HY 18 hr (mRNA expression level): cell type #11, hypoxia 18 hr; for #11 NO (mRNA expression level): cell type #11, normoxia;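 as to mRNA expression level, #1 HY 18 hr: cell type #1 is adipocyte from subcutaneous adult adipose tissue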;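 as to mRNA expression level, #1 HY 6 hr: cell type #1 is adipocyte from subcutaneous adult adipose tissue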;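 as to mRNA expression level, #1 NO: cell type #1 is adipocyte from subcutaneous adult adipose tissue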;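 as to mRNA expression level, #2 HY 18 hr: cell type #2 is fetal cardiomyocyte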;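 as to mRNA expression level, #2 HY 6 hr: cell type #2 is fetal cardiomyocyte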;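 as to mRNA expression level, #2 NO: cell type #2 is fetal cardiomyocyte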;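 as to mRNA expression level, #3 HY 6 hr: cell type #3 is human umbilical vein endothelial cells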;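 as to mRNA expression level, #3 NO: cell type #3 is human umbilical vein endothelial cells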;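 as to mRNA expression level, #4 HY 18 hr: cell type #4 is adult dermal fibroblast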;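 as to mRNA expression level, #4 HY 6 hr: cell type #4 is adult dermal fibroblast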;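 as to mRNA expression level, #4 NO: cell type #4 is adult dermal fibroblast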;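 as to mRNA expression level, #5 HY 6 hr: cell type #5 is adult hepatocyte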;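 as to mRNA expression level, #5 NO: cell type #5 is adult hepatocyte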;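 as to mRNA expression level, #6 HY 6 hr: cell type #6 is blood-derived macrophage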;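 as to mRNA expression level, #6 NO: cell type #6 is blood-derived macrophage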
# Procedure, shortened: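 Eleven primary, unmodified human cell types (one non-primary neuronal type) held in normoxia or hypoxia for 6 hr and 18 hr. RNA hybridised to duplicate or triplicate custom arrays, normalised per array to reference genes. Expression given relative to each gene's median across all conditions.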
# [2] = Table 15, referenced to the median value of that gene throughout all 6 conditions
# [3] = Table 16, referenced to median of the gene over 6 conditions
molecule,measurement,setting,value
B1,mRNA EXPRESSION (experimental condition) #1,human macrophages; [2],0.44
same,mRNA EXPRESSION (experimental condition) #2,human macrophages; [2],1.08
same,mRNA EXPRESSION (experimental condition) #3,human macrophages; [2],0.47
same,mRNA EXPRESSION (experimental condition) #4,human macrophages; [2],1.06
same,mRNA EXPRESSION (experimental condition) #5,human macrophages; [2],1.11
same,mRNA EXPRESSION (experimental condition) #6,human macrophages; [2],2.47
same,HIGHEST FOLD CHANGE IN HYPOXIA (hr hypoxia + cell type),[1]; 18 hr monocyte,67.4 (18 hr monocyte) fold
B2,mRNA EXPRESSION (experimental condition) #1,human macrophages; [2],0.58
same,mRNA EXPRESSION (experimental condition) #2,human macrophages; [2],0.71
same,mRNA EXPRESSION (experimental condition) #3,human macrophages; [2],1.00
same,mRNA EXPRESSION (experimental condition) #4,human macrophages; [2],1.32
same,mRNA EXPRESSION (experimental condition) #5,human macrophages; [2],1.56
same,mRNA EXPRESSION (experimental condition) #6,human macrophages; [2],2.59
same,"mRNA expression level, #1 HY 6 hr",[1],0.71
same,"mRNA expression level, #1 HY 18 hr",[1],1.39
same,"mRNA expression level, #1 NO",[1],0.98
same,"mRNA expression level, #2 HY 6 hr",[1],1.98
same,"mRNA expression level, #2 HY 18 hr",[1],2.16
same,"mRNA expression level, #2 NO",[1],1.55
same,"mRNA expression level, #3 HY 6 hr",[1],1.47
same,"mRNA expression level, #3 HY 18 hr",[1],1.01
same,"mRNA expression level, #3 NO",[1],1.18
same,"mRNA expression level, #4 HY 6 hr",[1],0.49
same,"mRNA expression level, #4 HY 18 hr",[1],0.67
same,"mRNA expression level, #4 NO",[1],0.74
same,"mRNA expression level, #5 HY 6 hr",[1],1.94
same,"mRNA expression level, #5 NO",[1],1.53
same,"mRNA expression level, #6 HY 6 hr",[1],0.98
same,#6 HY 18 hr (mRNA expression level),[1],0.96
same,"mRNA expression level, #6 NO",[1],0.90
same,#7 HY 6 hr (mRNA expression level),[1],0.79
same,#7 HY 18 hr (mRNA expression level),[1],0.49
same,#7 NO (mRNA expression level),[1],0.71
same,#8 HY 6 hr (mRNA expression level),[1],0.90
same,#8 HY 18 hr (mRNA expression level),[1],0.93
same,#8 NO (mRNA expression level),[1],0.53
same,#9 HY 6 hr (mRNA expression level),[1],0.51
same,#9 HY 18 hr (mRNA expression level),[1],0.43
same,#9 NO (mRNA expression level),[1],0.81
same,#10 HY 6 hr (mRNA expression level),[1],10.9
same,#10 HY 18 hr (mRNA expression level),[1],11.79
same,#10 NO (mRNA expression level),[1],4.63
same,#11 HY 6 hr (mRNA expression level),[1],2.23
same,#11 HY 18 hr (mRNA expression level),[1],1.65
same,#11 NO (mRNA expression level),[1],1.85
same,HIGHEST FOLD CHANGE IN HYPOXIA (hr hypoxia + cell type),[1]; 18 hr renal epithelial,2.55 (18 hr renal epithelial) fold
B3,mRNA EXPRESSION (experimental condition) #1,human macrophages; [3],1.21
same,mRNA EXPRESSION (experimental condition) #2,human macrophages; [3],1.64
same,mRNA EXPRESSION (experimental condition) #3,human macrophages; [3],0.94
same,mRNA EXPRESSION (experimental condition) #4,human macrophages; [3],1.35
same,mRNA EXPRESSION (experimental condition) #5,human macrophages; [3],0.51
same,mRNA EXPRESSION (experimental condition) #6,human macrophages; [3],0.63
same,"mRNA expression level, #1 HY 6 hr",[1],1.31
same,"mRNA expression level, #1 HY 18 hr",[1],2.14
same,"mRNA expression level, #1 NO",[1],2.91
same,"mRNA expression level, #2 HY 6 hr",[1],6.21
same,"mRNA expression level, #2 HY 18 hr",[1],2.25
same,"mRNA expression level, #2 NO",[1],3.07
same,"mRNA expression level, #3 HY 6 hr",[1],2.11
same,"mRNA expression level, #3 HY 18 hr",[1],1.28
same,"mRNA expression level, #3 NO",[1],1.08
same,"mRNA expression level, #4 HY 6 hr",[1],1.01
same,"mRNA expression level, #4 HY 18 hr",[1],1.21
same,"mRNA expression level, #4 NO",[1],1.02
same,"mRNA expression level, #5 HY 6 hr",[1],0.80
same,"mRNA expression level, #5 NO",[1],0.56
same,"mRNA expression level, #6 HY 6 hr",[1],1.16
same,#6 HY 18 hr (mRNA expression level),[1],1.25
same,"mRNA expression level, #6 NO",[1],0.64
same,#7 HY 6 hr (mRNA expression level),[1],0.42
same,#7 HY 18 hr (mRNA expression level),[1],0.29
same,#7 NO (mRNA expression level),[1],0.29
same,#8 HY 6 hr (mRNA expression level),[1],0.47
same,#8 HY 18 hr (mRNA expression level),[1],0.91
same,#8 NO (mRNA expression level),[1],0.28
same,#9 HY 6 hr (mRNA expression level),[1],1.24
same,#9 HY 18 hr (mRNA expression level),[1],0.88
same,#9 NO (mRNA expression level),[1],1.03
same,#10 HY 6 hr (mRNA expression level),[1],0.61
same,#10 HY 18 hr (mRNA expression level),[1],0.60
same,#10 NO (mRNA expression level),[1],0.32
same,#11 HY 6 hr (mRNA expression level),[1],4.39
same,#11 HY 18 hr (mRNA expression level),[1],2.33
same,#11 NO (mRNA expression level),[1],3.03
same,HIGHEST FOLD CHANGE IN HYPOXIA (hr hypoxia + cell type),[1]; 6 hr cardiomyocyte,3.24 (6 hr cardiomyocyte) fold
